Assay results as given in patent publication US20240181022A1, “AMURINS LYSINS, AND LYSIN-ANTIMICROBIAL PEPTIDE (AMP) CONSTRUCTS ACTIVE AGAINST GRAM-NEGATIVE BACTERIA” (priority 2021, published 2024).
Where two headings read alike, the source gives them in different places.

Legend:
B. cenocepacia [1] = test: MIC by broth microdilution against B. cenocepacia; assay type: cell-based, Burkholderia cenocepacia
Description: MIC values were determined using a modification of the standard broth microdilution reference method defined by the Clinical and Laboratory Standards Institute (CLSI), CLSL. 2015. Methods for Dilution Antimicrobial Susceptibility Tests for Bacteria That Grow Aerobically; Approved Standard-10th Edition. Clinical and Laboratory Standards Institute, Wayne, PA. The modification was based on the replacement of Mueller Hinton Broth with either CAA media (with and without NaCl) or CAA supplemented with 2.5% human serum. MIC is the minimum concentration of peptide sufficient to suppress at least 80% of the bacterial growth compared to control.
Based on these nine most prevalent strains, direct lytic agents, including GN370, AM1, AM2, and AM3, were evaluated against various isolates from each of the 9 strains. MICs and MBECs (Example 3) were determined, and a sputum inhibition test was conducted, as described below in Example 5.
The MICs for were determined as described below using the broth microdilution method for meropenem, GN370, AM1, AM2, and AM3. The results are shown below in Tables 8-12.

P. aeruginosa [2] = test: Time-kill assay in cystic fibrosis patient sputum, P. aeruginosa; assay type: cell-based, Pseudomonas aeruginosa
Description: (§1) Sputum from 5 cystic fibrosis patients was pooled. The resulting mixture was not filtered, as it was very dense and not amenable to sterilization by filtration. Sputum is known to be a complex mixture of DNA, carbohydrates, and lipids ([…], 2016). As used herein, the term “sputum” refers to the mucus present in the respiratory tract of an animal, such as a human. Sputum may increase in thickness due to the irritation or infection, including bacterial infection, and in some instances, may be expelled by the animal while coughing. In certain instances, cystic fibrosis may be characterized by the presence of a thick, sticky mucus or sputum present in the lungs of cystic fibrosis patients. The activity of GN370, AM1, AM2, AM3, and meropenem was determined in the sputum using a time-kill assay format as disclosed in Zhang et al., Antimicrobial peptide therapeutics for cystic fibrosis, Antimicrobial Agents Chemother. 2005; 49(7):2921-2927. […] Untreated controls were included in addition to pretreatment plating (t=0) for a baseline CFU determination. Activity was also determined in the absence of sputum for comparison to activity observed in the presence of sputum.

S. maltophilia [3] = test: Time-kill assay in cystic fibrosis patient sputum, S. maltophilia; assay type: cell-based, Stenotrophomonas maltophilia
Description: as §1

A. xylosoxidans = test: Time-kill assay in cystic fibrosis patient sputum, A. xylosoxidans; assay type: cell-based, Achromobacter xylosoxidans
Description: as §1

P. aeruginosa [4] = test: Serial passage resistance development study, P. aeruginosa; assay type: cell-based, Pseudomonas aeruginosa
A. ruhlandii = assay type: cell-based, Achromobacter ruhlandii; settings: A. ruhlandii (15); 2-hour treatment
Description: (§2) The MBEC (after 2-hour treatments) was determined as described in Jones and Wozniak, PsI Produced by Mucoid Pseudomonas aeruginosa Contributes to the Establishment of Biofilms and Immune Evasion, Am. Soc. Microbiol. 2017, 8(3):e00864-17. Meropenem and tobramycin were included as controls and were both poorly active, with MBEC90 values of >256 μg/mL (data not shown).

B. cenocepacia [5] = assay type: cell-based, Burkholderia cenocepacia; settings: B. cenocepacia (15); 2-hour treatment
Description: as §2

B. gladioli = assay type: cell-based, Burkholderia gladioli; settings: B. gladioli (15); 2-hour treatment
Description: as §2

S. maltophilia [6] = test system: S. maltophilia
[7] = Burkholderia cenocepacia, N 15 (Table 26)
[8] = MDR S. maltophilia isolates (n = 8)
[9] = Stenotrophomonas maltophilia, N 12 (Table 26)
[10] = carbapenem-resistant S. maltophilia isolates (n = 21)

B1: GN370: lysin-AMP construct, SEQ ID NO: 149: MIDR, FIRL and NPTH moieties N-terminal to GN202 lysin (protein)
chain: MIDRFIRLNPTHGPRRPRRPGRRAPVRTSQRGIDLIKSFEGLRLSAYQDSVGVWTIGYGTTRGVTRYMTITVEQAERMLSNDIQRFEPELDRLAKVPLNQNQWDALMSFVYNLGAANLASSTLLDLLNKGDYQGAADQFPHWVNAGGKRLDGLVKRRAAERALFLEPLS
modifications: GN370 lysin
For B1, the MIC50 (B. cenocepacia [1]; B. cenocepacia isolates) was over 32 µg/mL, the MIC90 (B. cenocepacia [1]; B. cenocepacia isolates) was over 32 µg/mL and the MIC50 (B. cenocepacia [1]; [7]) was over 64 µg/mL. The MIC90 (B. cenocepacia [1]; [7]) was over 64 µg/mL, the “effect of sputum on antibacterial activity” value (from here on “effect of sputum”) (P. aeruginosa [2]; 10% CF sputum vs no sputum) was “not inhibited” and the “Log10 CFU/mL of sputum” value (P. aeruginosa [2]; absence of sputum, 1 hr) was 2.3 Log10 CFU/mL of sputum. The “Log10 CFU/mL of sputum” value (P. aeruginosa [2]; absence of sputum, 3 hr) was 2.3 Log10 CFU/mL of sputum, the “Log10 CFU/mL of sputum” value (P. aeruginosa [2]; absence of sputum, 24 hr) was 2.3 Log10 CFU/mL of sputum and the “Log10 CFU/mL of sputum” value (P. aeruginosa [2]; presence of 10% sputum, 1 hr) was 3.9 Log10 CFU/mL of sputum. For the same molecule, the “Log10 CFU/mL of sputum” value (P. aeruginosa [2]; presence of 10% sputum, 3 hr) was 3.6 Log10 CFU/mL of sputum, the “Log10 CFU/mL of sputum” value (P. aeruginosa [2]; presence of 10% sputum, 24 hr) was 2.3 Log10 CFU/mL of sputum and the “CFU reduction by 3 hours” value (P. aeruginosa [2]; time-kill) was 1.5 log10. For the same molecule, the “CFU reduction by 24 hours” value (P. aeruginosa [2]; time-kill) was over 3 log10, the “effect of sputum” value (S. maltophilia [3]; 10% CF sputum vs no sputum) was “none of GN370, AM1, AM2, and AM3 was inhibited” and the “Log10 CFU/mL of sputum” value (S. maltophilia [3]; absence of sputum, 1 hr) was 2.3 Log10 CFU/mL of sputum. For the same molecule, the “Log10 CFU/mL of sputum” value (S. maltophilia [3]; absence of sputum, 3 hr) was 2.3 Log10 CFU/mL of sputum, the “Log10 CFU/mL of sputum” value (S. maltophilia [3]; absence of sputum, 24 hr) was 2.3 Log10 CFU/mL of sputum and the “Log10 CFU/mL of sputum” value (S. maltophilia [3]; presence of 10% sputum, 1 hr) was 3.48 Log10 CFU/mL of sputum. The “Log10 CFU/mL of sputum” value (S. maltophilia [3]; presence of 10% sputum, 3 hr) was 2.3 Log10 CFU/mL of sputum, the “Log10 CFU/mL of sputum” value (S. maltophilia [3]; presence of 10% sputum, 24 hr) was 2.3 Log10 CFU/mL of sputum and the “CFU reduction by 3 hours” value (S. maltophilia [3]; time-kill) was about 2 log10. For the same molecule, the “killing by 24 hours” value (S. maltophilia [3]; time-kill) was “complete killing”, the “effect of sputum” value (A. xylosoxidans; 10% CF sputum vs no sputum) was “none of GN370, AM1, AM2, and AM3 was inhibited” and the “Log10 CFU/mL of sputum” value (A. xylosoxidans; absence of sputum, 1 hr) was 3.7 Log10 CFU/mL of sputum. The “Log10 CFU/mL of sputum” value (A. xylosoxidans; absence of sputum, 3 hr) was 3.3 Log10 CFU/mL of sputum, the “Log10 CFU/mL of sputum” value (A. xylosoxidans; absence of sputum, 24 hr) was 2.3 Log10 CFU/mL of sputum and the “Log10 CFU/mL of sputum” value (A. xylosoxidans; presence of 10% sputum, 1 hr) was 3.6 Log10 CFU/mL of sputum. For the same molecule, the “Log10 CFU/mL of sputum” value (A. xylosoxidans; presence of 10% sputum, 3 hr) was 3.3 Log10 CFU/mL of sputum, the “Log10 CFU/mL of sputum” value (A. xylosoxidans; presence of 10% sputum, 24 hr) was 2.3 Log10 CFU/mL of sputum and the “CFU reduction by 3 hours” value (A. xylosoxidans; time-kill) was about 2 log10. For the same molecule, the “CFU reduction by 24 hours” value (A. xylosoxidans; time-kill) was over 3 log10, the “change in MIC over 28-day serial passage” value (P. aeruginosa [4]; P. aeruginosa (PA453)) was “No change” and the MIC (P. aeruginosa [4]; P. aeruginosa PA453, target organism of serial passage study) was 0.125 µg/mL. For the same molecule, the “change in MIC over serial passage” value (P. aeruginosa [4]; P. aeruginosa strain CFS 1292, Day 28) was “no significant changes”, the MBEC50 (A. ruhlandii) was 4 µg/mL and the MBEC90 (A. ruhlandii) was 64 µg/mL. For the same molecule, the “MBEC Range” value (A. ruhlandii) was 4 to 64 µg/mL, the MBEC50 (B. cenocepacia [5]) was 256 µg/mL and the MBEC50 (B. gladioli) was 256 µg/mL. The MIC50 (S. maltophilia [6]; [8]) was 0.25 µg/mL, the MIC90 (S. maltophilia [6]; [8]) was 0.5 µg/mL and the “MIC Range” value (S. maltophilia [6]; MDR S. maltophilia isolates (n = 8), in µg/mL) was 0.0625-0.5. For the same molecule, the MIC50 (S. maltophilia [6]; S. maltophilia isolates) was 0.5 µg/mL, the MIC90 (S. maltophilia [6]; S. maltophilia isolates) was 2 µg/mL and the “MIC Range” value (S. maltophilia [6]; S. maltophilia isolates, in µg/mL) was 0.03-2. For the same molecule, the MIC (S. maltophilia [6]; S. maltophilia test organism of the sputum time-kill assay) was “GN370 (MIC = 0.5)”, the MIC50 (S. maltophilia [6]; [9]) was 2 µg/mL and the MIC90 (S. maltophilia [6]; [9]) was 8 µg/mL. For the same molecule, the “MIC Range” value (S. maltophilia [6]; [9]) was 0.25 to 8 µg/mL, the “GN370 MIC” value (S. maltophilia [6]; XDR S. maltophilia isolate AU29729) was 1 µg/mL and the “GN370 MIC” value (S. maltophilia [6]; XDR S. maltophilia isolate AU29873) was 0.5 µg/mL. The “GN370 MIC” value (S. maltophilia [6]; XDR S. maltophilia isolate AU30243) was 1 µg/mL, the “GN370 MIC” value (S. maltophilia [6]; XDR S. maltophilia isolate AU30793) was 1 µg/mL and the “GN370 MIC” value (S. maltophilia [6]; XDR S. maltophilia isolate AU32079) was 0.03125 µg/mL. The “GN370 MIC” value (S. maltophilia [6]; XDR S. maltophilia isolate AU33199) was 0.0625 µg/mL, the “GN370 MIC” value (S. maltophilia [6]; XDR S. maltophilia isolate AU33860) was 2 µg/mL and the “GN370 MIC” value (S. maltophilia [6]; XDR S. maltophilia isolate AU33921) was 2 µg/mL. The “GN370 MIC” value (S. maltophilia [6]; XDR S. maltophilia isolate AU34723) was 2 µg/mL, the “GN370 MIC” value (S. maltophilia [6]; XDR S. maltophilia isolate AU35419) was 2 µg/mL and the “GN370 MIC” value (S. maltophilia [6]; XDR S. maltophilia isolate AU35661) was 0.0625 µg/mL. The “GN370 MIC” value (S. maltophilia [6]; XDR S. maltophilia isolate AU36631) was 0.5 µg/mL, the “GN370 MIC” value (S. maltophilia [6]; XDR S. maltophilia isolate AU36888) was 0.25 µg/mL and the “GN370 MIC” value (S. maltophilia [6]; XDR S. maltophilia isolate AU37239) was 1 µg/mL. For the same molecule, the “GN370 MIC” value (S. maltophilia [6]; XDR S. maltophilia isolate AU37260) was 0.5 µg/mL, the “GN370 MIC” value (S. maltophilia [6]; XDR S. maltophilia isolate AU37689) was 0.25 µg/mL and the “GN370 MIC” value (S. maltophilia [6]; XDR S. maltophilia isolate AU37737) was 2 µg/mL. For the same molecule, the MIC50 (S. maltophilia [6]; XDR isolates of S. maltophilia) was 1 µg/mL, the MIC Range (S. maltophilia [6]; XDR isolates of S. maltophilia, in µg/mL) was 0.03125-2 and the “activity (MIC) against S. maltophilia isolates” value (S. maltophilia [6]; all tested isolates, Tables 8-12) was “highly active”. The “GN370 MIC50” value (S. maltophilia [6]; [10]) was 0.5 µg/mL, the “GN370 MIC90” value (S. maltophilia [6]; [10]) was 2 µg/mL and the “GN370 MIC Range” value (S. maltophilia [6]; carbapenem-resistant S. maltophilia isolates (n = 21), in µg/mL) was 0.03-2.
